Measurements taken from article PMC5444744, “Interaction between granulin A and enolase 1 attenuates the migration and invasion of human hepatoma cells” (Oncotarget, 2017).

Target: T1, ENO1 (bought, ATGen #ATGP0404) (UniProt P06733 1-434)
T1 construct: ENO1 (α-enolase), bought protein, ATGen #ATGP0404; also called α-enolase; source: bought: ATGen (#ATGP0404)
Experiment: SPR; ENO1 immobilised directly on CM5 chip (8171 RU, 10 mM sodium acetate pH 5.0); GRN A 3.5-112.0 μM in HBS-EP (10 mM HEPES, 150 mM NaCl, 3 mM EDTA, 0.05% P20) at 30 μL/min; BIACORE T200; KD = Koff/Kon
Details: both partners purified

T1 sequence (P06733 whole entry): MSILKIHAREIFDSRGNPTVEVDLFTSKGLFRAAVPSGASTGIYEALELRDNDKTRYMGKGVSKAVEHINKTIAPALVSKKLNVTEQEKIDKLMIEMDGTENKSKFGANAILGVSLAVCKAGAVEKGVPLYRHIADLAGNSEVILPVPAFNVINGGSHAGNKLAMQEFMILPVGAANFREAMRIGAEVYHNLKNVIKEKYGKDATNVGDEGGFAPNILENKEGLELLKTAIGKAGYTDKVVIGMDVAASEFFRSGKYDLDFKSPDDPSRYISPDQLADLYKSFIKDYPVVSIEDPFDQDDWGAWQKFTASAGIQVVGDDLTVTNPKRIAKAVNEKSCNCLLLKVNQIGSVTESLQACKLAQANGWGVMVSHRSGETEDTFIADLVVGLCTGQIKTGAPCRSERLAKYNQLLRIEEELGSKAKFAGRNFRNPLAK

B1: Granulin A (His-GRN A) (peptide, UniProt P28799 281-336, looked up)
chain: DVKCDMEVSCPDGYTCCRLQSGAWGCCPFTQAVCCEDHIHCCPAGFTCDTQKGTCE
notes: granulin A (GRN A), a peptide of about 6 kDa with 12 cysteine residues, derived from proteolysis of progranulin (PGRN); The source and limits of the His-tagged GRN A are not described; The SPR methods call the analyte only 'GRN A'
B1 was tested. Which Kd did it give?
Its Kd is 56 µM.
